From patent US20130078234A1 (Daiichi Sankyo, published 2013)

How the values were obtained:
[1] = biological target: T1, extracellular domain polypeptide of a recombinant B7-H3 variant 2 antigen (R&D Systems, Inc., #2318-B3-050/CF) (human, UniProt Q5ZPR3 29-466); experiment: SPR, antibody captured on immobilized anti-human IgG, B7-H3 variant 2 extracellular domain as analyte; cM30 chimeric antibody, captured on anti-human IgG; experiment 8)-1
T1 construct: Bought recombinant protein; also called recombinant B7-H3 antigen; B7-H3 antigen
T1 sequence: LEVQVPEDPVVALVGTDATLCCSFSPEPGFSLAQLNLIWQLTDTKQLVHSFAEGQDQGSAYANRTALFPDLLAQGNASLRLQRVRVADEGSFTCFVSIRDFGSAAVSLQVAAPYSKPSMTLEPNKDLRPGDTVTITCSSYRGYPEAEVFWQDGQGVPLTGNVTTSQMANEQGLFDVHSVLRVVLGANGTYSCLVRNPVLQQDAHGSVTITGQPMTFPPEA
Method: The affinity between the M30 antibody or the cM30 antibody and the B7-H3 antigen was measured by a surface plasmon resonance (SPR) device (GE Healthcare Corporation). According to a common procedure, an anti-mouse IgG or an anti-human IgG antibody was immobilized on a sensor chip, and then, the M30 antibody sample or the cM30 antibody was bound thereto. Thereafter, an extracellular domain polypeptide of a recombinant B7-H3 variant 2 antigen (manufactured by R&D Systems, Inc., #2318-B3-050/CF) was added thereto at different concentrations, and the amount of the antigen bound to the antibody in a running buffer (phosphate buffer, 0.05% SP20) was measured over time. The measured amount was analyzed with a dedicated software (BIAevaluation Version 4.1, GE Healthcare Corporation) and a dissociation constant was calculated.

[2] = biological target: T1, extracellular domain polypeptide of a …; experiment: competition ELISA on plate-coated B7-H3 variant 2 extracellular domain polypeptide; competitor biotinylated M30 (bM30, 5 ug/ml), detected with streptavidin-HRP, OD 450 nm
Method: Each of the extracellular domain polypeptide of the B7-H3 variant 1 (manufactured by R&D Systems, Inc., #1949-B3-050/CF) and the extracellular domain polypeptide of the B7-H3 variant (manufactured by R&D Systems, Inc., #2318-B3-050/CF) was diluted to 0.5 μg/ml with a coating buffer and the resulting solution was dispensed at 100 μL/well in an immunoplate (manufactured by Nunc, Inc., #442404). Then, the plate was left to stand overnight at 4° C., whereby the protein was adsorbed to the plate. On the next day, an assay diluent was dispensed at 200 μL/well, and the plate was left to stand at room temperature for 4 hours.

[3] = biological target: T1, extracellular domain polypeptide of a …; experiment: SPR (Biacore), antibody captured on anti-human IgG, B7-H3 variant 2 extracellular domain as analyte; positive control
Method: (§1) The binding property of the humanized M30 antibody to human B7-H3 which is an antigen was measured by a surface plasmon resonance (SPR) device (Biacore, Inc.). According to a common procedure, an anti-human IgG antibody was immobilized on a sensor chip, and then, each of the purified samples of the humanized M30 antibodies obtained in the above 10)-4 was bound thereto. Thereafter, an extracellular domain polypeptide of the B7-H3 variant 2 antigen (manufactured by R&D Systems, Inc., #2318-B3-050/CF) was added thereto at different concentrations, and the amount of the antigen bound to the antibody in a running buffer (phosphate buffer, 0.05% SP20) was measured over time. The measured amount was analyzed with a dedicated software (BIAevaluation) and a dissociation constant (Kd [M]) was calculated. The measurement was performed using the cM30 antibody as a positive control for each measurement operation.

[4] = biological target: T1, extracellular domain polypeptide of a …; experiment: SPR (Biacore), antibody captured on anti-human IgG, B7-H3 variant 2 extracellular domain as analyte
Method: as §1

B1: chimeric antibody M30 (antibody, human IgG1, kappa)
heavy: not shown
light: QIVLSQSPTILSASPGEKVTMTCRASSRLIYMHWYQQKPGSSPKPWIYATSNLASGVPARFSGSGSGTSYSLTISRVEAEDAATYYCQQWNSNPPTFGTGTKLELKRTVAAPSVFIFPPSDEQLKSGTASVVCLLNNFYPREAKVQWKVDNALQSGNSQESVTEQDSKDSTYSLSSTLTLSKADYEKHKVYACEVTHQGLSSPVTKSFNRGEC
notes: Mouse M30 variable regions on human IgG1 / human kappa constant regions; also called cM30; cM30 antibody
For B1, which Kd [1] is on record?
The Kd was 3.43 nM.

And the “IC50 (read off the curve)” value [2]?
Its value is ~0.4 µg/mL.

What about the Kd [3] of the same binder?
Its Kd is 0.73 nM.

B2: humanized M30 antibody M30-H1-L1 (antibody, human IgG1, kappa, V domains shown)
VH: QVQLVQSGAEVKKPGSSVKVSCKASGYTFTNYVMHWVRQAPGQGLEWMGYINPYNDDVKYNEKFKGRVTITADESTSTAYMELSSLRSEDTAVYYCARWGYYGSPLYYFDYWGQGTLVTVSS
VL: EIVLTQSPATLSLSPGERATLSCRASSRLIYMHWYQQKPGQAPRLLIYATSNLASGIPARFSGSGSGTDFTLTISRLEPEDFAVYYCQQWNSNPPTFGQGTKVEIKR
notes: Human IgG1/kappa
B2 was tested. Which Kd [4] did it give?
The Kd was 87 nM.

B3: humanized M30 antibody M30-H4-L3 (antibody, human IgG1, kappa, V domains shown)
VH: EVQLVQSGAEVKKPGSSVKVSCKASGYTFTNYVMHWVKQAPGQGLEWIGYINPYNDDVKYNEKFKGKATQTSDKSTSTAYMELSSLRSEDTAVYYCARWGYYGSPLYYFDYWGQGTLVTVSS
VL: QIVLSQSPATLSLSPGERATLTCRASSRLIYMHWYQQKPGSAPKLWIYATSNLASGIPARFSGSGSGTSYTLTISRLEPEDFAVYYCQQWNSNPPTFGQGTKVEIKR
notes: Human IgG1/kappa
With B3 as the binder, how does the Kd [4] read?
The Kd was 160 nM.

B4: humanized M30 antibody M30-H4-L2 (antibody, human IgG1, kappa, V domains shown)
VH: EVQLVQSGAEVKKPGSSVKVSCKASGYTFTNYVMHWVKQAPGQGLEWIGYINPYNDDVKYNEKFKGKATQTSDKSTSTAYMELSSLRSEDTAVYYCARWGYYGSPLYYFDYWGQGTLVTVSS
VL: EIVLTQSPATLSLSPGERATLSCRASSRLIYMHWYQQKPGQAPRLWIYATSNLASGIPARFSGSGSGTDYTLTISRLEPEDFAVYYCQQWNSNPPTFGQGTKVEIKR
notes: Human IgG1/kappa
With B4 as the binder, how does the Kd [4] read?
Its Kd is 140 nM.

B5: humanized M30 antibody M30-H1-L3 (antibody, human IgG1, kappa, V domains shown)
VH: QVQLVQSGAEVKKPGSSVKVSCKASGYTFTNYVMHWVRQAPGQGLEWMGYINPYNDDVKYNEKFKGRVTITADESTSTAYMELSSLRSEDTAVYYCARWGYYGSPLYYFDYWGQGTLVTVSS
VL: QIVLSQSPATLSLSPGERATLTCRASSRLIYMHWYQQKPGSAPKLWIYATSNLASGIPARFSGSGSGTSYTLTISRLEPEDFAVYYCQQWNSNPPTFGQGTKVEIKR
notes: Human IgG1/kappa
How did the Kd [4] turn out when B5 was run?
The Kd was 100 nM.

B6: humanized M30 antibody M30-H1-L2 (antibody, human IgG1, kappa, V domains shown)
VH: QVQLVQSGAEVKKPGSSVKVSCKASGYTFTNYVMHWVRQAPGQGLEWMGYINPYNDDVKYNEKFKGRVTITADESTSTAYMELSSLRSEDTAVYYCARWGYYGSPLYYFDYWGQGTLVTVSS
VL: EIVLTQSPATLSLSPGERATLSCRASSRLIYMHWYQQKPGQAPRLWIYATSNLASGIPARFSGSGSGTDYTLTISRLEPEDFAVYYCQQWNSNPPTFGQGTKVEIKR
notes: Human IgG1/kappa
B6 was tested. Which Kd [4] did it give?
The Kd was 100 nM.

B7: humanized M30 antibody M30-H1-L4 (antibody, human IgG1, kappa, V domains shown)
VH: QVQLVQSGAEVKKPGSSVKVSCKASGYTFTNYVMHWVRQAPGQGLEWMGYINPYNDDVKYNEKFKGRVTITADESTSTAYMELSSLRSEDTAVYYCARWGYYGSPLYYFDYWGQGTLVTVSS
VL: EIVLTQSPATLSLSPGERATLSCRASSRLIYMHWYQQKPGQAPRPLIYATSNLASGIPARFSGSGSGTDFTLTISSLEPEDFAVYYCQQWNSNPPTFGQGTKVEIKR
notes: Human IgG1/kappa; also called M30-H1-L4 antibody
With B7 as the binder, how does the “IC50 (read off the curve)” value [2] read?
Its value is ~0.5 µg/mL.

What about the Kd [4] of the same binder?
The Kd was 16 nM.

B8: humanized M30 antibody M30-H1-L5 (antibody, human IgG1, kappa, V domains shown)
VH: QVQLVQSGAEVKKPGSSVKVSCKASGYTFTNYVMHWVRQAPGQGLEWMGYINPYNDDVKYNEKFKGRVTITADESTSTAYMELSSLRSEDTAVYYCARWGYYGSPLYYFDYWGQGTLVTVSS
VL: QIVLSQSPATLSLSPGERATLTCRASSRLIYMHWYQQKPGSAPKPWIYATSNLASGIPARFSGSGSGTSYTLTISRLEPEDFAVYYCQQWNSNPPTFGQGTKVEIKR
notes: Human IgG1/kappa
How did the Kd [4] turn out when B8 was run?
Its Kd is 1.9 nM.

B9: humanized M30 antibody M30-H1-L7 (antibody, human IgG1, kappa, V domains shown)
VH: QVQLVQSGAEVKKPGSSVKVSCKASGYTFTNYVMHWVRQAPGQGLEWMGYINPYNDDVKYNEKFKGRVTITADESTSTAYMELSSLRSEDTAVYYCARWGYYGSPLYYFDYWGQGTLVTVSS
VL: EIVLTQSPATLSLSPGERATLSCRASSRLIYMHWYQQKPGQAPRPLIYATSNLASGIPARFSGSGSGTDYTLTISRLEPEDFAVYYCQQWNSNPPTFGQGTKVEIKR
notes: Human IgG1/kappa
How did the Kd [4] turn out when B9 was run?
The Kd was 2.7 nM.

B10: humanized M30 antibody M30-H4-L1 (antibody, human IgG1, kappa, V domains shown)
VH: EVQLVQSGAEVKKPGSSVKVSCKASGYTFTNYVMHWVKQAPGQGLEWIGYINPYNDDVKYNEKFKGKATQTSDKSTSTAYMELSSLRSEDTAVYYCARWGYYGSPLYYFDYWGQGTLVTVSS
VL: EIVLTQSPATLSLSPGERATLSCRASSRLIYMHWYQQKPGQAPRLLIYATSNLASGIPARFSGSGSGTDFTLTISRLEPEDFAVYYCQQWNSNPPTFGQGTKVEIKR
notes: Human IgG1/kappa
Which Kd [4] does the source give for B10 here?
Its Kd is 130 nM.

B11: humanized M30 antibody M30-H4-L4 (antibody, human IgG1, kappa, V domains shown)
VH: EVQLVQSGAEVKKPGSSVKVSCKASGYTFTNYVMHWVKQAPGQGLEWIGYINPYNDDVKYNEKFKGKATQTSDKSTSTAYMELSSLRSEDTAVYYCARWGYYGSPLYYFDYWGQGTLVTVSS
VL: EIVLTQSPATLSLSPGERATLSCRASSRLIYMHWYQQKPGQAPRPLIYATSNLASGIPARFSGSGSGTDFTLTISSLEPEDFAVYYCQQWNSNPPTFGQGTKVEIKR
notes: Human IgG1/kappa
Which Kd [4] does the source give for B11 here?
Its Kd is 12 nM.

B12: humanized M30 antibody M30-H1-L6 (antibody, human IgG1, kappa, V domains shown)
VH: QVQLVQSGAEVKKPGSSVKVSCKASGYTFTNYVMHWVRQAPGQGLEWMGYINPYNDDVKYNEKFKGRVTITADESTSTAYMELSSLRSEDTAVYYCARWGYYGSPLYYFDYWGQGTLVTVSS
VL: EIVLTQSPATLSLSPGERATLSCRASSRLIYMHWYQQKPGQAPRPLIYATSNLASGIPARFSGSGSGTDFTLTISRLEPEDFAVYYCQQWNSNPPTFGQGTKVEIKR
notes: Human IgG1/kappa
Which Kd [4] does the source give for B12 here?
Its Kd is 3.4 nM.
